Laboratory results as given in the supplement of paper PMC7125110.
± gives the standard error. This sample holds only a part of the variants without activity.

B1: glmS ribozyme (parent)
chain: AUAAAAGCGCCAGAACUACAGAAAUGUAGUUGACGAGGAGGAGGUUUAUCGAAUUUUCGGCGGAUGCCUCCAAA

Columns and labels:
Settings in all cases: with glucosamine-6-phosphate
glucosamine-6-phosphate [1] = variants of: B1; test: self-cleavage kobs at 40 uM GlcN6P; higher = faster cleavage; RNA array
How it was run: (§1)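 Using a hybridised Cy3 probe at 37 °C, barcoded ribozyme variants transcribed in situ by E. coli RNA polymerase on sequenced MiSeq chips were monitored across tiles imaged over ~14 h. The flow contained glucosamine-6-phosphate from 40 μM to 10 mM in HEPES/KCl/Mg(OAc)2 buffer. Signals were normalised to baseline and to non-cleaving reference variants before per-tile medians were fit to one- or two-exponential decays to yield kobs. Weighted Michaelis–Menten fits across concentrations gave kcat and KM.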

glucosamine-6-phosphate [2] = variants of: B1; test: self-cleavage kobs at 160 uM GlcN6P; higher = faster cleavage; RNA array
How it was run: as §1

glucosamine-6-phosphate [3] = variants of: B1; test: self-cleavage kobs at 640 uM GlcN6P; higher = faster cleavage; RNA array
How it was run: as §1

glucosamine-6-phosphate [4] = variants of: B1; test: self-cleavage kobs at 10000 uM GlcN6P; higher = faster cleavage; RNA array
How it was run: as §1

glucosamine-6-phosphate [5] = variants of: B1; test: self-cleavage kobs at 2500 uM GlcN6P; higher = faster cleavage; RNA array
How it was run: as §1

| Variant | self-cleavage kobs at 40 uM GlcN6P (glucosamine-6-phosphate [1]) [s⁻¹] | self-cleavage kobs at 160 uM GlcN6P (glucosamine-6-phosphate [2]) [s⁻¹] | self-cleavage kobs at 640 uM GlcN6P (glucosamine-6-phosphate [3]) [s⁻¹] | self-cleavage kobs at 10000 uM GlcN6P (glucosamine-6-phosphate [4]) [s⁻¹] | self-cleavage kobs at 2500 uM GlcN6P (glucosamine-6-phosphate [5]) [s⁻¹] |
| --- | --- | --- | --- | --- | --- |
| A14U G35C A42C | < 1e-05 | < 1e-05 | – | – | – |
| G13C U47C | < 1e-05 | < 1e-05 | – | – | – |
| A15C A52C C70U C71G | < 1e-05 | – | – | – | – |
| A14C A15C C50G G60C C67U | 6.66e-05 ± 3e-05 | – | – | – | – |
| C16G G35A | < 1e-05 | < 1e-05 | < 1e-05 | < 1e-05 | – |
| G13C G60A | < 1e-05 | < 1e-05 | < 1e-05 | < 1e-05 | < 1e-05 |
| A15C U30G A39U | 0.00162 ± 0.00029 | – | – | 0.0346 ± 0.013 | – |
| C16A A36C G51A A53U U69G | 6.48e-05 ± 2.5e-05 | – | – | 4.91e-05 ± 1.6e-05 | – |
| C16G C70U | 0.000111 ± 1.4e-05 | 0.000359 ± 6.2e-05 | 0.000455 ± 8e-05 | 0.00521 ± 0.001 | 0.000561 ± 9e-05 |
| G13U G35C | < 1e-05 | < 1e-05 | < 1e-05 | < 1e-05 | < 1e-05 |
| A15C A52U A53G U56C | < 1e-05 | – | – | < 1e-05 | – |
| A15U U47C C61U | < 1e-05 | – | – | < 1e-05 | – |
| A15G G66A | 0.000603 ± 8.4e-05 | 0.00153 ± 0.00044 | 0.00506 ± 0.0011 | 0.0412 ± 0.011 | 0.00542 ± 0.0014 |
| C16A G51U A64C | < 1e-05 | – | – | < 1e-05 | < 1e-05 |
| C16A A36G | < 1e-05 | < 1e-05 | < 1e-05 | < 1e-05 | – |
| C16G G37A C68U | < 1e-05 | – | – | – | – |
| A14C G32A A42U U54G | < 1e-05 | – | – | – | – |
| A14G G40U C50G | < 1e-05 | – | – | – | – |
| A15G G62U | < 1e-05 | – | – | < 1e-05 | – |
| A15C C16G | 5.89e-05 ± 1.4e-05 | – | 0.000438 ± 5.6e-05 | 0.00295 ± 0.00045 | – |
| A15U A42G G62U | < 1e-05 | – | – | < 1e-05 | < 1e-05 |
| A14U U56C | 5.38e-05 ± 1.8e-05 | – | 0.000234 ± 4.8e-05 | 0.00138 ± 0.00027 | 0.000307 ± 7.6e-05 |
| C16A G43U C68G C71U | < 1e-05 | – | – | – | – |
| A15C G51A | < 1e-05 | < 1e-05 | – | < 1e-05 | – |
| A15U G43A G44U G62A | < 1e-05 | – | – | < 1e-05 | – |

| Variant | self-cleavage kobs at 40 uM GlcN6P (glucosamine-6-phosphate [1]) [s⁻¹] | self-cleavage kobs at 160 uM GlcN6P (glucosamine-6-phosphate [2]) [s⁻¹] | self-cleavage kobs at 640 uM GlcN6P (glucosamine-6-phosphate [3]) [s⁻¹] | self-cleavage kobs at 10000 uM GlcN6P (glucosamine-6-phosphate [4]) [s⁻¹] | self-cleavage kobs at 2500 uM GlcN6P (glucosamine-6-phosphate [5]) [s⁻¹] |
| --- | --- | --- | --- | --- | --- |
| A14U A15G G43C | < 1e-05 | – | < 1e-05 | – | < 1e-05 |
| A14C C61G | < 1e-05 | – | – | < 1e-05 | – |
| A14G C50G C68U U69A C71G | 0.000105 ± 1.7e-05 | – | – | 0.000199 ± 5.1e-05 | 0.000379 ± 8.1e-05 |
| A14U G43A U49A C58U | < 1e-05 | – | – | < 1e-05 | – |
| A14G A39G | 0.004 ± 0.00057 | 0.00304 ± 0.00096 | 0.0236 ± 0.0054 | 0.138 ± 0.052 | – |
| A15C U55A C61G | < 1e-05 | – | – | < 1e-05 | – |
| A15G A39C C61U G63C C68G | < 1e-05 | – | < 1e-05 | – | – |
| A14G G41A C67U | < 1e-05 | – | – | – | – |
| A15C C50G G62U | 4.56e-05 ± 2.2e-05 | – | 6.39e-05 ± 2.8e-05 | – | 0.000111 ± 3.3e-05 |
| A15G G63C | < 1e-05 | < 1e-05 | < 1e-05 | < 1e-05 | < 1e-05 |
| A15C U30A G41C U45A C58U | < 1e-05 | – | – | – | – |
| A14G G40A A53U | 0.000596 ± 0.00013 | – | – | 0.0182 ± 0.004 | – |
| G13C G62A | < 1e-05 | – | – | – | < 1e-05 |
| G13U G29U A36U U57G | < 1e-05 | – | – | < 1e-05 | – |
| A15C C70U | 0.000192 ± 1.8e-05 | 0.000389 ± 4.7e-05 | 0.000719 ± 7.7e-05 | 0.00871 ± 0.0019 | 0.00537 ± 0.0012 |
| A15C G37A G41C U69G | < 1e-05 | – | – | < 1e-05 | – |
| A14G G59A U65G G66A | < 1e-05 | – | – | – | < 1e-05 |
| A15U U31A G32A A36U U57A C58G C71U | 5.17e-05 ± 2.1e-05 | – | – | 0.000109 ± 2.6e-05 | – |
| G13U G41C U46G C50G | < 1e-05 | – | – | – | – |
| A14C G63A | < 1e-05 | – | < 1e-05 | < 1e-05 | – |
| A15G U30G C70U | 0.000184 ± 5.6e-05 | – | 0.00102 ± 0.00026 | 0.0318 ± 0.013 | – |
| A15C G35U A36G U65C C68A | < 1e-05 | – | – | < 1e-05 | – |
| C16G U31C U45C | < 1e-05 | – | – | – | – |
| C16A G29U U31C | 3.38e-05 ± 1.4e-05 | – | – | 0.000493 ± 0.00013 | – |
| A14U C70U | 0.000285 ± 2.5e-05 | 0.000441 ± 6.1e-05 | 0.00104 ± 0.00018 | – | 0.00724 ± 0.0015 |
